Experimental data published in EP2319931A1 (Inhibitex, Inc., dated 2011).

B3: biotinylated ClfA region A protein (other)
chain: SENSVTQSDSASNESKSNDSSSVSAAPKTDDTNVSDTKTSSNTNNGETSVAQNPAQQETTQSSSTNATTEETPVTGEATTTTTNQANTPATTQSSNTNAEELVNQTSNETTFNDTNTVSSVNSPQNSTNAENVSTTQDTSTEATPSNNESAPQSTDASNKDVVNQAVNTSAPRMRAFSLAAVAADAPAAGTDITNQLTNVTVGIDSGTTVYPHQAGYVKLNYGFSVPNSAVKGDTFKITVPKELNLNGVTSTAKVPPIMAGDQVLANGVIDSDGNVIYTFTDYVNTKDDVKATLTMPAYIDPENVKKTGNVTLATGIGSTTANKTVLVDYEKYGKFYNLSIKGTIDQIDKTNNTYRQTIYVNPSGDNVIAPVLTGNLKPNTDSNALIDQQNTSIKVYKVDNAADLSESYFVNPENFEDVTNSVNITFPNPNQYKVEFNTPDDQITTPYIVVVNGHIDPNSKGDLALRSTLYGYNSNIIWRSMSWDNEVAFNNGSGSGDGIDKPVVPEQPDEPGEIEPIPE
modifications: biotinylated (sites not given)
notes: domain: region A; also called biotinylated recombinant region A from ClfA; C1fA region A
B4: biotinylated ClfB (His-tag recombinant region A) (other)
chain: SEQSNDTTQSSKNNASADSEKNNMIETPQLNTTANDTSDISANTNSANVDSTTKPMSTQTSNTTTTEPASTNETPQPTAIKNQATAAKMQDQTVPQEGNSQVDNKTTNDANSIATNSELKNSQTLDLPQSSPQTISNAQGTSKPSVRTRAVRSLAVAEPVVNAADAKGTNVNDKVTASNFKLEKTTFDPNQSGNTFMAANFTVTDKVKSGDYFTAKLPDSLTGNGDVDYSNSNNTMPIADIKSTNGDVVAKATYDILTKTYTFVFTDYVNNKENINGQFSLPLFTDRAKAPKSGTYDANINIADEMFNNKITYNYSSPIAGIDKPNGANISSQIIGVDTASGQNTYKQTVFVNPKQRVLGNTWVYIKGYQDKIEESSGKVSATDTKLRIFEVNDTSKLSDSYYADPNDSNLKEVTDQFKNRIYYEHPNVASIKFGDITKTYVVLVEGHYDNTGKNLKTQVIQENVDPVTNRDYSIFGWNNENVVRYGGGSADGDSAVN
modifications: Biotinylated with EZ link-sulfo-NHS-LC-Biotin (sites not given); N-terminal His-tag from pV4 left off.
notes: Region A (S45 to N542) amplified from S. aureus Newman genomic DNA, cloned in His-tag vector pV4, purified on nickel; also called ClfB region A; biotinylated purified ClfB region A

Tests used:
[1] = molecular target: B3; assay: Western affinity blot (Figure 22), blotted human fibrinogen probed with 2.5 µg/ml biotinylated region A
[2] = molecular target: B4; assay: Western affinity blot, blotted human fibrinogen probed with 2.5 µg/ml biotinylated ClfB region A
human fibrinogen = molecular target: T1, human fibrinogen (human, UniProt P02671 20-629; P02675 31-491; P02679 27-437); assay: direct ELISA, biotinylated region A on fibrinogen-coated plates (Figure 14)
T1 construct: Purified human fibrinogen, bought (Chromogenix for ELISA, Calbiochem for clumping); The plate adherence assays say only 'fibrinogen'; also called solid phase fibrinogen; immobilized fibrinogen
T1 sequence 1: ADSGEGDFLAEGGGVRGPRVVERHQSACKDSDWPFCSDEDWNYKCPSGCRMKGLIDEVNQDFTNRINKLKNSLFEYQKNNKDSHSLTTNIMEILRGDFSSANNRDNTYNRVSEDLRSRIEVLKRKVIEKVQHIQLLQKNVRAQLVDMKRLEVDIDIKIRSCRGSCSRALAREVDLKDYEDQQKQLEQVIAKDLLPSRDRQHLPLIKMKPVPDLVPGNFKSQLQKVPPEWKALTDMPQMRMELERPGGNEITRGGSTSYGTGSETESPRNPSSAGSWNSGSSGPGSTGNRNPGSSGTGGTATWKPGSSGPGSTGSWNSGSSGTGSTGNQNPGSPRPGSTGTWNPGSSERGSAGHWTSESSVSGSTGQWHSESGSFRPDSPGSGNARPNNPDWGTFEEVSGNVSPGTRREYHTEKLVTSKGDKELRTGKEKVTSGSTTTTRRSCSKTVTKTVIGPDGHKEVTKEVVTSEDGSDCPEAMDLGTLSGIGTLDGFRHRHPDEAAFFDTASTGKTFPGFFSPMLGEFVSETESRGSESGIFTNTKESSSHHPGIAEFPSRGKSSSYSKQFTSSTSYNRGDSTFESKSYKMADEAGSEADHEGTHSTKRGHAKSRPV
T1 sequence 2: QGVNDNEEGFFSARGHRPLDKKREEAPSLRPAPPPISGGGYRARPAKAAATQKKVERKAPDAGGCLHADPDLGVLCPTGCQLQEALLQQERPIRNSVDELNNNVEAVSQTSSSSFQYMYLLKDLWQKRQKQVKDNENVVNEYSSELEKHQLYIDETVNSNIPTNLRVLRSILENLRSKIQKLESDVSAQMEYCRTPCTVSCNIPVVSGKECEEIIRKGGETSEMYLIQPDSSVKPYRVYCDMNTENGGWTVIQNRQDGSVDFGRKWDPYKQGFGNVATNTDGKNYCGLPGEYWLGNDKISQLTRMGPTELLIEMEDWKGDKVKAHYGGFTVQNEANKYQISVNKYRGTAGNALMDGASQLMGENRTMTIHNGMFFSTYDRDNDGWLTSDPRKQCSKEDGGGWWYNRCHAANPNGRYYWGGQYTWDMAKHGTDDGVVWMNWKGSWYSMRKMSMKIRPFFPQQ
T1 sequence 3: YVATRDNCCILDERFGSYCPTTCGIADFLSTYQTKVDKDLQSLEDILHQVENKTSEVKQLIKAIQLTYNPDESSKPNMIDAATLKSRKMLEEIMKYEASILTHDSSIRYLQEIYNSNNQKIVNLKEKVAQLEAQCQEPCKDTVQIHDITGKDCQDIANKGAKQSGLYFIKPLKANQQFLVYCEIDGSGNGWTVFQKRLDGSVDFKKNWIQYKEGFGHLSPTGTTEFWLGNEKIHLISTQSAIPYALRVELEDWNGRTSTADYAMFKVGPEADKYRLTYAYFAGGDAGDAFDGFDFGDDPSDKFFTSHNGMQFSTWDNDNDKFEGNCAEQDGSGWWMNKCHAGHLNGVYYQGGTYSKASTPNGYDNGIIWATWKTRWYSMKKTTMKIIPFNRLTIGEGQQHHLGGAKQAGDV

bovine serum albumin = molecular target: T2, bovine serum albumin (bovine, UniProt P02769 25-607); assay: direct ELISA, biotinylated region A on BSA-coated plates
T2 construct: Negative control coat in ELISA; also called BSA

[3] = molecular target: T3, alpha chain of human fibrinogen (human, UniProt P02671 20-629); assay: Western affinity blot, blotted human fibrinogen probed with 2.5 µg/ml biotinylated ClfB region A
T3 construct: Band of human fibrinogen (Chromogenix) after SDS-PAGE, on nitrocellulose; also called α chain of fibrinogen
T3 sequence: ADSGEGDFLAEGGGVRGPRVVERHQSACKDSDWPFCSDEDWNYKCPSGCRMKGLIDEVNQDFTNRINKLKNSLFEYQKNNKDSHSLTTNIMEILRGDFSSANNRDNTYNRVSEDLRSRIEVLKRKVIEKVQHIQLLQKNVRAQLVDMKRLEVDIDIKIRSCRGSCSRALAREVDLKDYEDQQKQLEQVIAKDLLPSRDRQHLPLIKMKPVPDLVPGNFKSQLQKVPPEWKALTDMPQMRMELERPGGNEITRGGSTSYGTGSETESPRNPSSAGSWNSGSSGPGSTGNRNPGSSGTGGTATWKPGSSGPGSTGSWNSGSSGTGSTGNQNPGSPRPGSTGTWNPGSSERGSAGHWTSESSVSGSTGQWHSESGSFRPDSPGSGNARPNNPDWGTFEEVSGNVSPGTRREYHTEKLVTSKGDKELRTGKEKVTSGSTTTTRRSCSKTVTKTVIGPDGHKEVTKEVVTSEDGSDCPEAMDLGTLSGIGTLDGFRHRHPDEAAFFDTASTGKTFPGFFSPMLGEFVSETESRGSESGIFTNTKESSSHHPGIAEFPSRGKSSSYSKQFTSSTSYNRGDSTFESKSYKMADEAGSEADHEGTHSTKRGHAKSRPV

T2 sequence (P02769 25-607 limits assumed): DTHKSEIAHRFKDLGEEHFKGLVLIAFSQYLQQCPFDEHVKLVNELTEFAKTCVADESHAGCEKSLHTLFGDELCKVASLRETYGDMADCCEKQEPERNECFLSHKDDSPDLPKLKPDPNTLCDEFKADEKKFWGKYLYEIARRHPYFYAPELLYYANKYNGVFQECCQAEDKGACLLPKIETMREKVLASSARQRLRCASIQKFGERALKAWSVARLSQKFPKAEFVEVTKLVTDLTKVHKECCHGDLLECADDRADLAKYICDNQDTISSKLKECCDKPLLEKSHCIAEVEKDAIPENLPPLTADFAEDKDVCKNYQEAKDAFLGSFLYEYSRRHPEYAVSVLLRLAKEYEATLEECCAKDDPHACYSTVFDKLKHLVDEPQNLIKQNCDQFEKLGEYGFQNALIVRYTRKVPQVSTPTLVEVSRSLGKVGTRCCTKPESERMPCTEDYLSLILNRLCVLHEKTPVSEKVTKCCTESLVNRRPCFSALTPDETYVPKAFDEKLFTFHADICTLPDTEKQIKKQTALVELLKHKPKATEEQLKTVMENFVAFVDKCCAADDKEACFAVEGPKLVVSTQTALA

B1: gamma chain of human fibrinogen (other)
chain: YVATRDNCCILDERFGSYCPTTCGIADFLSTYQTKVDKDLQSLEDILHQVENKTSEVKQLIKAIQLTYNPDESSKPNMIDAATLKSRKMLEEIMKYEASILTHDSSIRYLQEIYNSNNQKIVNLKEKVAQLEAQCQEPCKDTVQIHDITGKDCQDIANKGAKQSGLYFIKPLKANQQFLVYCEIDGSGNGWTVFQKRLDGSVDFKKNWIQYKEGFGHLSPTGTTEFWLGNEKIHLISTQSAIPYALRVELEDWNGRTSTADYAMFKVGPEADKYRLTYAYFAGGDAGDAFDGFDFGDDPSDKFFTSHNGMQFSTWDNDNDKFEGNCAEQDGSGWWMNKCHAGHLNGVYYQGGTYSKASTPNGYDNGIIWATWKTRWYSMKKTTMKIIPFNRLTIGEGQQHHLGGAKQAGDV
notes: Band of human fibrinogen (Chromogenix) after SDS-PAGE, on nitrocellulose; also called γ chain of fibrinogen
binding result [1]: binds

B2: beta chain of human fibrinogen (other)
chain: QGVNDNEEGFFSARGHRPLDKKREEAPSLRPAPPPISGGGYRARPAKAAATQKKVERKAPDAGGCLHADPDLGVLCPTGCQLQEALLQQERPIRNSVDELNNNVEAVSQTSSSSFQYMYLLKDLWQKRQKQVKDNENVVNEYSSELEKHQLYIDETVNSNIPTNLRVLRSILENLRSKIQKLESDVSAQMEYCRTPCTVSCNIPVVSGKECEEIIRKGGETSEMYLIQPDSSVKPYRVYCDMNTENGGWTVIQNRQDGSVDFGRKWDPYKQGFGNVATNTDGKNYCGLPGEYWLGNDKISQLTRMGPTELLIEMEDWKGDKVKAHYGGFTVQNEANKYQISVNKYRGTAGNALMDGASQLMGENRTMTIHNGMFFSTYDRDNDGWLTSDPRKQCSKEDGGGWWYNRCHAANPNGRYYWGGQYTWDMAKHGTDDGVVWMNWKGSWYSMRKMSMKIRPFFPQQ
notes: Band of human fibrinogen (Chromogenix) after SDS-PAGE, on nitrocellulose; also called β chain of fibrinogen
binding result [2]: binds

B3
binding at the highest concentration relative to ClfB region A (human fibrinogen): ~50 % greater than ClfB
binding result (bovine serum albumin): no binding

B4
binding result [3]: binds
binding result (human fibrinogen): binds
binding result (bovine serum albumin): no binding (tested: 0.1-10 µg/ml)
